Assay results as given in FireProtDB.

B1: Serine proteinase inhibitor IA-1, Q7M4T6 (parent)
chain: SAGKFIVIFKNDVSEDKIRETKDEVIAEGGTITNEYNMPGMKGFAGELTPQSLTKFQGLQGDLIDSIEEDGIVTTQ
B2: Glypican-1, P35052 (parent)
chain: MELRARGWWLLCAAAALVACARGDPASKSRSCGEVRQIYGAKGFSLSDVPQAEISGEHLRICPQGYTCCTSEMEENLANRSHAELETALRDSSRVLQAMLATQLRSFDDHFQHLLNDSERTLQATFPGAFGELYTQNARAFRDLYSELRLYYRGANLHLEETLAEFWARLLERLFKQLHPQLLLPDDYLDCLGKQAEALRPFGEAPRELRLRATRAFVAARSFVQGLGVASDVVRKVAQVPLGPECSRAVMKLVYCAHCLGVPGARPCPDYCRNVLKGCLANQADLDAEWRNLLDSMVLITDKFWGTSGVESVIGSVHTWLAEAINALQDNRDTLTAKVIQGCGNPKVNPQGPGPEEKRRRGKLAPRERPPSGTLEKLVSEAKAQLRDVQDFWISLPGTLCSEKMALSTASDDRCWNGMARGRYLPEVMGDGLANQINNPEVEVDITKPDMTIRQQIMQLKIMTNRLRSAYNGNDVDFQDASDDGSGSGSGDGCLDDLCSRKVSRKSSSSRTPLTHALPGLSEQEGQKTSAASCPQPPTFLLPLLLFLALTVARPRWR
B3: Cyclin-dependent kinase inhibitor 2A, P42771 (parent)
chain: MEPAAGSSMEPSADWLATAAARGRVEEVRALLEAGALPNAPNSYGRRPIQVMMMGSARVAELLLLHGAEPNCADPATLTRPVHDAAREGFLDTLVVLHRAGARLDVRDAWGRLPVDLAEELGHRDVARYLRAAAGGTRGSNHARIDAAEGPSDIPD
B4: Tryptophan synthase alpha chain, P0A877 (parent)
chain: MERYESLFAQLKERKEGAFVPFVTLGDPGIEQSLKIIDTLIEAGADALELGIPFSDPLADGPTIQNATLRAFAAGVTPAQCFEMLALIRQKHPTIPIGLLMYANLVFNKGIDEFYAQCEKVGVDSVLVADVPVEESAPFRQAALRHNVAPIFICPPNADDDLLRQIASYGRGYTYLLSRAGVTGAENRAALPLNHLVAKLKEYNAAPPLQGFGISAPDQVKAAIDAGAAGAISGSAIVKIIEQHINEPEKMLAALKVFVQPMKAATRS

Variants of: B1
Details: Pleurotus ostreatus; pH 7; Thermal; CD; sodium phosphate 50 mM; whole UniProt chain shown

Variant	Tm [°C]	change of melting temperature, mutant - wild type (higher = more stable) [°C]
SAGKFIVIFKNDVSEDKIRETKDEVIAEGGTITNEYNMPGMKGFAGELTPQSLTKAQGLQGDLIDSIEEDGIVTTQ	46	-13

Variants of: B2
Details: Homo sapiens; pH 7; 20 °C; Urea; CD; Sodium Phosphate Buffer; transition: 2; structure 4ACR; whole UniProt chain shown

Variant	denaturant midpoint (higher = more stable) [M]
MELRARGWWLLCAAAALVACARGDPASKSRSCGEVRQIYGAKGFSLSDVPQAEISGEHLRICPQGYTCCTSEMEENLAQRSHAELETALRDSSRVLQAMLATQLRSFDDHFQHLLQDSERTLQATFPGAFGELYTQNARAFRDLYSELRLYYRGANLHLEETLAEFWARLLERLFKQLHPQLLLPDDYLDCLGKQAEALRPFGEAPRELRLRATRAFVAARSFVQGLGVASDVVRKVAQVPLGPECSRAVMKLVYCAHCLGVPGARPCPDYCRNVLKGCLANQADLDAEWRNLLDSMVLITDKFWGTSGVESVIGSVHTWLAEAINALQDNRDTLTAKVIQGCGNPKVNPQGPGPEEKRRRGKLAPRERPPSGTLEKLVSEAKAQLRDVQDFWISLPGTLCSEKMALSTASDDRCWNGMARGRYLPEVMGDGLANQINNPEVEVDITKPDMTIRQQIMQLKIMTNRLRSAYNGNDVDFQDASDDGSGSGSGDGCLDDLCSRKVSRKSSSSRTPLTHALPGLSEQEGQKTSAASCPQPPTFLLPLLLFLALTVARPRWR [N79Q N116Q]	5.37

Same assay, conditions: Homo sapiens; pH 7.4; Thermal; CD; Sodium Phosphate Buffer; reversible: no; structure 4ACR; whole UniProt chain shown

Variant	Tm [°C]	change of melting temperature, mutant - wild type (higher = more stable) [°C]
MELRARGWWLLCAAAALVACARGDPASKSRSCGEVRQIYGAKGFSLSDVPQAEISGEHLRICPQGYTCCTSEMEENLAQRSHAELETALRDSSRVLQAMLATQLRSFDDHFQHLLQDSERTLQATFPGAFGELYTQNARAFRDLYSELRLYYRGANLHLEETLAEFWARLLERLFKQLHPQLLLPDDYLDCLGKQAEALRPFGEAPRELRLRATRAFVAARSFVQGLGVASDVVRKVAQVPLGPECSRAVMKLVYCAHCLGVPGARPCPDYCRNVLKGCLANQADLDAEWRNLLDSMVLITDKFWGTSGVESVIGSVHTWLAEAINALQDNRDTLTAKVIQGCGNPKVNPQGPGPEEKRRRGKLAPRERPPSGTLEKLVSEAKAQLRDVQDFWISLPGTLCSEKMALSTASDDRCWNGMARGRYLPEVMGDGLANQINNPEVEVDITKPDMTIRQQIMQLKIMTNRLRSAYNGNDVDFQDASDDGSGSGSGDGCLDDLCSRKVSRKSSSSRTPLTHALPGLSEQEGQKTSAASCPQPPTFLLPLLLFLALTVARPRWR [N79Q N116Q]	66	-3
MELRARGWWLLCAAAALVACARGDPASKSRSCGEVRQIYGAKGFSLSDVPQAEISGEHLRICPQGYTCCTSEMEENLAQRSHAELETALRDSSRVLQAMLATQLRSFDDHFQHLLNDSERTLQATFPGAFGELYTQNARAFRDLYSELRLYYRGANLHLEETLAEFWARLLERLFKQLHPQLLLPDDYLDCLGKQAEALRPFGEAPRELRLRATRAFVAARSFVQGLGVASDVVRKVAQVPLGPECSRAVMKLVYCAHCLGVPGARPCPDYCRNVLKGCLANQADLDAEWRNLLDSMVLITDKFWGTSGVESVIGSVHTWLAEAINALQDNRDTLTAKVIQGCGNPKVNPQGPGPEEKRRRGKLAPRERPPSGTLEKLVSEAKAQLRDVQDFWISLPGTLCSEKMALSTASDDRCWNGMARGRYLPEVMGDGLANQINNPEVEVDITKPDMTIRQQIMQLKIMTNRLRSAYNGNDVDFQDASDDGSGSGSGDGCLDDLCSRKVSRKSSSSRTPLTHALPGLSEQEGQKTSAASCPQPPTFLLPLLLFLALTVARPRWR [N79Q]	66	0

Variants of: B3
Details: Homo sapiens; pH 7.5; 25 °C; Urea; CD; Sodium phosphate 15 mM; NaCl 100 mM; reversible: yes; structure 1A5E; whole UniProt chain shown

Variant	denaturant m value [kcal/mol/M]	denaturant midpoint (higher = more stable) [M]
D84N	2	1.8
P81L	1.1	3.4
D74N	1.2	1.4

Variants of: B4
Details: Escherichia coli (strain K12); pH 7; 25 °C; Thermal; DSC; tetra-borate 1 mM; reversible: yes(70-95%); structure 1WQ5; whole UniProt chain shown

Variant	unfolding enthalpy (calorimetric) [kcal/mol]	unfolding free energy [kcal/mol]
MERYESLFAQLKERKEGAFVPFVTLGDPGIEQSLKIIDTLIEAGADALQLGIPFSDPLADGPTIQNATLRAFAAGVTPAQCFEMLALIRQKHPTIPIGLLMYANLVFNKGIDEFYAQCEKVGVDSVLVADVPVEESAPFRQAALRHNVAPIFICPPNADDDLLRQIASYGRGYTYLLSRAGVTGAENRAALPLNHLVAKLKEYNAAPPLQGFGISAPDQVKAAIDAGAAGAISGSAIVKIIEQHINEPEKMLAALKVFVQPMKAATRS [E49Q]	23.2	7.4

Same assay, conditions: Escherichia coli (strain K12); pH 7; 25.8 °C; GdnHCl; CD; Potassium phosphate 0.01 M; reversible: yes; structure 1WQ5; whole UniProt chain shown

Variant	ddG of mutation (higher = less stable) [kcal/mol]	unfolding free energy [kcal/mol]
MERYESLFAQLKERKEGAFVPFVTLGDPGIEQSLKIIDTLIEAGADALQLGIPFSDPLADGPTIQNATLRAFAAGVTPAQCFEMLALIRQKHPTIPIGLLMYANLVFNKGIDEFYAQCEKVGVDSVLVADVPVEESAPFRQAALRHNVAPIFICPPNADDDLLRQIASYGRGYTYLLSRAGVTGAENRAALPLNHLVAKLKEYNAAPPLQGFGISAPDQVKAAIDAGAAGAISGSAIVKIIEQHINEPEKMLAALKVFVQPMKAATRS [E49Q]	2.5	6.3

Same assay, conditions: Escherichia coli (strain K12); pH 7; Thermal; DSC; tetra-borate 1 mM; reversible: yes(70-95%); structure 1WQ5; whole UniProt chain shown

Variant	Tm [°C]	heat capacity change of unfolding [kcal/mol/K]
MERYESLFAQLKERKEGAFVPFVTLGDPGIEQSLKIIDTLIEAGADALQLGIPFSDPLADGPTIQNATLRAFAAGVTPAQCFEMLALIRQKHPTIPIGLLMYANLVFNKGIDEFYAQCEKVGVDSVLVADVPVEESAPFRQAALRHNVAPIFICPPNADDDLLRQIASYGRGYTYLLSRAGVTGAENRAALPLNHLVAKLKEYNAAPPLQGFGISAPDQVKAAIDAGAAGAISGSAIVKIIEQHINEPEKMLAALKVFVQPMKAATRS [E49Q]	59.4	2.87

Same assay, conditions: Escherichia coli (strain K12); pH 7.2; 25 °C; Thermal; CD; tetra-borate 1 mM; reversible: yes(70-95%); structure 1WQ5; whole UniProt chain shown

Variant	unfolding free energy [kcal/mol]
MERYESLFAQLKERKEGAFVPFVTLGDPGIEQSLKIIDTLIEAGADALQLGIPFSDPLADGPTIQNATLRAFAAGVTPAQCFEMLALIRQKHPTIPIGLLMYANLVFNKGIDEFYAQCEKVGVDSVLVADVPVEESAPFRQAALRHNVAPIFICPPNADDDLLRQIASYGRGYTYLLSRAGVTGAENRAALPLNHLVAKLKEYNAAPPLQGFGISAPDQVKAAIDAGAAGAISGSAIVKIIEQHINEPEKMLAALKVFVQPMKAATRS [E49Q]	6.1

Same assay, conditions: Escherichia coli (strain K12); pH 7.2; Thermal; CD; tetra-borate 1 mM; reversible: yes(70-95%); structure 1WQ5; whole UniProt chain shown

Variant	Tm [°C]	heat capacity change of unfolding [kcal/mol/K]	unfolding enthalpy (van 't Hoff) [kcal/mol]
MERYESLFAQLKERKEGAFVPFVTLGDPGIEQSLKIIDTLIEAGADALQLGIPFSDPLADGPTIQNATLRAFAAGVTPAQCFEMLALIRQKHPTIPIGLLMYANLVFNKGIDEFYAQCEKVGVDSVLVADVPVEESAPFRQAALRHNVAPIFICPPNADDDLLRQIASYGRGYTYLLSRAGVTGAENRAALPLNHLVAKLKEYNAAPPLQGFGISAPDQVKAAIDAGAAGAISGSAIVKIIEQHINEPEKMLAALKVFVQPMKAATRS [E49Q]	59.6	2.68	14.3

Same assay, conditions: Escherichia coli (strain K12); pH 9.3; Thermal; CD; tetra-borate 1 mM; reversible: yes(70-95%); structure 1WQ5; whole UniProt chain shown

Variant	Tm [°C]	heat capacity change of unfolding [kcal/mol/K]	unfolding enthalpy (van 't Hoff) [kcal/mol]
MERYESLFAQLKERKEGAFVPFVTLGDPGIEQSLKIIDTLIEAGADALQLGIPFSDPLADGPTIQNATLRAFAAGVTPAQCFEMLALIRQKHPTIPIGLLMYANLVFNKGIDEFYAQCEKVGVDSVLVADVPVEESAPFRQAALRHNVAPIFICPPNADDDLLRQIASYGRGYTYLLSRAGVTGAENRAALPLNHLVAKLKEYNAAPPLQGFGISAPDQVKAAIDAGAAGAISGSAIVKIIEQHINEPEKMLAALKVFVQPMKAATRS [E49Q]	59.6	2.68	14.3

Same assay, conditions: Escherichia coli (strain K12); pH 9.3; Thermal; DSC; tetra-borate 1 mM; reversible: yes(70-95%); structure 1WQ5; whole UniProt chain shown

Variant	Tm [°C]	heat capacity change of unfolding [kcal/mol/K]
MERYESLFAQLKERKEGAFVPFVTLGDPGIEQSLKIIDTLIEAGADALQLGIPFSDPLADGPTIQNATLRAFAAGVTPAQCFEMLALIRQKHPTIPIGLLMYANLVFNKGIDEFYAQCEKVGVDSVLVADVPVEESAPFRQAALRHNVAPIFICPPNADDDLLRQIASYGRGYTYLLSRAGVTGAENRAALPLNHLVAKLKEYNAAPPLQGFGISAPDQVKAAIDAGAAGAISGSAIVKIIEQHINEPEKMLAALKVFVQPMKAATRS [E49Q]	62.4	2.87
